Laboratory results: patent US20210188980A1 (SHANGHAI EPIMAB BIOTHERAPEUTICS, published 2021)
Residue numbers refer to the chain shown, from its start.

B1: HumAb747V-73 (antibody, human IgG1, V domains shown)
VH: EVQLVQSGAEVKKPGATVKLSCTASGFNIKDDYMHWVKQRPEQGLDWIGWIVPRNGNTVYASKFQGKATITADTSTNTAYLELSSLRSEDTAVYYCTVYGDYWGQGTTVTVSS
VL: DIQMTQSPSSLSASVGDRVTITCRASQEISGYLSWLQQKPGGAIKRLIYAASTLDSGVPSRFSGSRSGSDYTLTISSLQPEDFADYYCLQYASYPLTFGQGTKLELK
notes: engineered HumAb747-60 variant; human IgG1/kappa constant domains
B2: mAb747c (antibody, V domains shown)
VH: EVQLQQSGAELVRPGASVKLSCTASDFNIKDDYMHWVKQRPEQGLDWIGWIVPENGNTEYASKFQGKATITADTSSNTAYLQLSSLTSEDTAVYYCTVYGDYWGQGTTLTVSS
VL: DIQMTQSPSSLSASLGERVSLNCRASQEISGYLSWLQQKPDGTIKRLIYAASTLDSGVPKRFSGSRSGSDYSLTISSLESEDFAAYYCLQYASYPLTFGAGTKLELK
notes: also called mAb717c
B3: HumAb747-39 (antibody, human IgG1, V domains shown)
VH: EVQLVQSGAEVKKPGASVKVSCKASDFNIKDDYMHWVRQAPGQGLEWIGWIVPENGNTEYASKFQGRVTITADTSINTAYMELSRLRSDDTAVYYCTVYGDYWGQGTTVTVSS
VL: B1 VL with T22N, G41E, A43T, D85T, Q100G, L104V, L106I
notes: humanized mAb747; human IgG1 and human kappa constant domains
B4: HumAb747-42 (antibody, human IgG1, V domains shown)
VH: B3 VH with R67K, V68A
VL: B1 VL with T22N, G41E, A43T, D85T, Q100G, L104V, L106I
notes: as for B3

Experiments:
[1] = target: T1, recombinant human LAG-3-his protein (Novoprotein) (human, UniProt P18627 23-450); experiment: BLI Octet, Ab on AHC sensor, huLAG-3-his; test group 3
T1 construct: Bought; also called huLAG-3; not shown: His tag
T1 sequence (looked up): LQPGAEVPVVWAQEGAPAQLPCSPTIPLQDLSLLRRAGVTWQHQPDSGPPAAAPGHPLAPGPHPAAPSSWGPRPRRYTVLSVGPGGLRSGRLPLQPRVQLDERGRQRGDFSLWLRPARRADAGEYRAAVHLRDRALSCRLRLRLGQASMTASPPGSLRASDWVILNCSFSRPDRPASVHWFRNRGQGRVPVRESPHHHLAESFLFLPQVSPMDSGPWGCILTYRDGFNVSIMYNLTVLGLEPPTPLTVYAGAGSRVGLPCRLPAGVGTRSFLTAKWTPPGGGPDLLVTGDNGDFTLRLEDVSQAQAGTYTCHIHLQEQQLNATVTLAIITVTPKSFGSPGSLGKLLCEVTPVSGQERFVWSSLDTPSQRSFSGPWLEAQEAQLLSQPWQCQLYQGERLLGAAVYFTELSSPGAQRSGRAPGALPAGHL
Experimental: (§1) All 9 humanized antibodies (Table 25) and a chimeric antibody having the parental murine VH and VL domains (mAb747c) were ranked by dissociation rate constant (koff). Briefly, antibodies were characterized for affinities and binding kinetics by Octet RED96 biolayer interferometry (Pall FortéBio LLC). Antibodies were captured by Anti-HIgG Fc Capture (AHC) Biosensors (Pall) at a concentration of 100 nM for 30 seconds. Sensors were then dipped into running buffer (1× pH7.2 PBS, 0.05% Tween 20, 0.1% BSA) for 60 seconds to check baseline. Binding was measured by dipping sensors into a single concentration of recombinant human LAG-3-his protein (Novoprotein). Dissociation was followed by dipping sensors into running buffer for 1200 seconds. The association and dissociation curves were fitted to a 1:1 Langmuir binding model using FortéBio Data Analysis software (Pall).
(§2) All 13 humanized antibodies (Table 39) and chimeric anti-LAG-3 antibody mAb747c having the parental murine VH and VL domains were ranked by dissociation rate constant (koff) in the same manner described in Example 9.1 supra. In each test group, the off-rates of antibodies were able to be compared with that of mAb747c. The off-rate ratios were calculated by the off-rate of antibody to that of mAb747c of its group and were compared all together. The lower the ratio was, the higher was the affinity of the antibody.

[2] = target: T1, recombinant human LAG-3-his protein …; experiment: BLI Octet, Ab on AHC sensor, huLAG-3-his; test group 2
Experimental: as §1
(§3) The seven Fab clones were converted to full IgG proteins. Briefly, the VH and VL genes were produced synthetically and then cloned into vectors containing coding sequences for the human IgG1 and human kappa constant domains, respectively. The heavy chain and cognate light chain plasmids were co-transfected into HEK 293E cells, individually. After approximately six days of post-transfection cell culture, the supernatants were harvested and subjected to Protein A affinity chromatography. The affinity of purified antibodies was ranked by Octet® RED96 biolayer interferometry (see, Example 9.1, supra).

[3] = target: T1, recombinant human LAG-3-his protein …; experiment: as above; remark: listed apart in the source
Experimental: as §1, with “All 18” for “All 9”, “(Table 34)” for “(Table 25)”, “by Octet®RED96” for “by Octet RED96”, “(Pall ForteBio” for “(Pall FortéBio”, “by Anti-hIgG” for “by Anti-HIgG”, “(Pall). In each test group, the off-rates of antibodies were able to be compared with that of mAb747c. The off-rate ratios were calculated by the off-rate of antibody to that of mAb747c of its group and were compared all together. The lower the ratio was, the higher was the affinity of the antibody.” for “(Pall).”

[4] = target: T1, recombinant human LAG-3-his protein …; experiment: BLI Octet, Ab on AHC sensor, huLAG-3-his; test group 4
Experimental: as §1, with “All 18” for “All 9”, “(Table 34)” for “(Table 25)”, “by Octet®RED96” for “by Octet RED96”, “(Pall ForteBio” for “(Pall FortéBio”, “by Anti-hIgG” for “by Anti-HIgG”, “(Pall). In each test group, the off-rates of antibodies were able to be compared with that of mAb747c. The off-rate ratios were calculated by the off-rate of antibody to that of mAb747c of its group and were compared all together. The lower the ratio was, the higher was the affinity of the antibody.” for “(Pall).”

[5] = target: T1, recombinant human LAG-3-his protein …; experiment: BLI Octet, Ab on AHC sensor, huLAG-3-his; test group 3; remark: listed apart in the source
Experimental: as §1, with “All 18” for “All 9”, “(Table 34)” for “(Table 25)”, “by Octet®RED96” for “by Octet RED96”, “(Pall ForteBio” for “(Pall FortéBio”, “by Anti-hIgG” for “by Anti-HIgG”, “(Pall). In each test group, the off-rates of antibodies were able to be compared with that of mAb747c. The off-rate ratios were calculated by the off-rate of antibody to that of mAb747c of its group and were compared all together. The lower the ratio was, the higher was the affinity of the antibody.” for “(Pall).”

[6] = target: T1, recombinant human LAG-3-his protein …; experiment: BLI Octet, Ab on AHC sensor, huLAG-3-his; test group 1
Experimental: as §1, §2

[7] = target: T1, recombinant human LAG-3-his protein …; experiment: BLI Octet, Ab on AHC sensor, huLAG-3-his analyte
Experimental: as §1

[8] = target: T1, recombinant human LAG-3-his protein …; experiment: BLI Octet, Ab on AHC sensor, huLAG-3-his; test group 1; remark: listed apart in the source
Experimental: as §1, with “All 18” for “All 9”, “(Table 34)” for “(Table 25)”, “by Octet®RED96” for “by Octet RED96”, “(Pall ForteBio” for “(Pall FortéBio”, “by Anti-hIgG” for “by Anti-HIgG”, “(Pall). In each test group, the off-rates of antibodies were able to be compared with that of mAb747c. The off-rate ratios were calculated by the off-rate of antibody to that of mAb747c of its group and were compared all together. The lower the ratio was, the higher was the affinity of the antibody.” for “(Pall).”

[9] = target: T1, recombinant human LAG-3-his protein …; experiment: as above; remark: listed apart in the source
Experimental: as §1, §3

[10] = target: T1, recombinant human LAG-3-his protein …; experiment: BLI Octet, Ab on AHC sensor, huLAG-3-his; test group 2; remark: listed apart in the source
Experimental: as §1, §2

Row | Binder | koff [1] [s⁻¹] | off-rate ratio to that of mAb747c [1] [%] | koff [2] [s⁻¹] | off-rate ratio to that of mAb747c [2] [%] | koff [3] [s⁻¹] | off-rate ratio to that of mAb747c [3] [%] | koff [4] [s⁻¹] | off-rate ratio to that of mAb747c [4] [%] | koff [5] [s⁻¹] | off-rate ratio to that of mAb747c [5] [%] | koff [6] [s⁻¹] | off-rate ratio to that of mAb747c [6] [%] | koff [7] [s⁻¹] | koff [8] [s⁻¹] | off-rate ratio to that of mAb747c [8] [%] | koff [9] [s⁻¹] | off-rate ratio to that of mAb747c [9] [%] | koff [10] [s⁻¹] | off-rate ratio to that of mAb747c [10] [%] | off-rate constant, fold of the chimeric control mAb747c [7] [fold]
1 | B1 | 0.000321 | 51 | – | – | – | – | – | – | – | – | – | – | – | – | – | – | – | – | – | –
2 | B2 | 0.000631 | 100 | 0.00163 | 100 | 0.00135 | 100 | 0.00053 | 100 | 0.00123 | 100 | 0.000615 | 100 | 0.000377 | 0.00136 | 100 | 0.0015 | 100 | 0.000676 | 100 | –
3 | B3 | – | – | 0.00391 | 240 | – | – | – | – | – | – | – | – | 0.00114 | – | – | – | – | – | – | –
4 | B4 | – | – | 0.00428 | 263 | – | – | – | – | – | – | – | – | 0.00083 | – | – | – | – | – | – | 2.2
